Measured values published in US20200270362A1 (HARPOON THERAPEUTICS, published 2020).

Molecular target: T1, TriTAC 75
T1 construct: Single-chain MSLN/albumin/CD3 trispecific protein, 6xHis
Assay: Affinity measurement, method not stated; row 'Kd huCD3E' (faint print)

T1 sequence (chain, as listed by the source): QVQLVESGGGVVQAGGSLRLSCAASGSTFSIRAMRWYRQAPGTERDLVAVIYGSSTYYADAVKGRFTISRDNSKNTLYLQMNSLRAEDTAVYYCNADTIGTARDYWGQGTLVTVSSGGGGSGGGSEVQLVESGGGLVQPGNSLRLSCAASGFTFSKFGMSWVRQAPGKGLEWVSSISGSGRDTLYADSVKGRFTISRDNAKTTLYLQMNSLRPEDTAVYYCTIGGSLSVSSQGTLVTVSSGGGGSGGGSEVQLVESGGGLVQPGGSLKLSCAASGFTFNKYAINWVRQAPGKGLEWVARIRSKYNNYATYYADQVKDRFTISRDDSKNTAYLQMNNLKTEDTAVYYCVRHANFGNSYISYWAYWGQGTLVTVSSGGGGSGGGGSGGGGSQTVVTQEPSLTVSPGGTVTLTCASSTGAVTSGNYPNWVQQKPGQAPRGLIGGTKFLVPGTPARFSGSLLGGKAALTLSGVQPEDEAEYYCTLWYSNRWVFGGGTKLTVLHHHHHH

Kd: 10 nM
B1: human CD3ε (receptor, UniProt P07766 23-126, looked up)
chain: DGNEEMGGITQTPYKVSISGTTVILTCPQYPGSEILWQHNDKNIGGDEDDKNIGSDEDHLSLKEFSELEQSGYYVCYPRGSKPEDANFYLYLRARVCENCMEMD
notes: also called human CD3c (so in the source)
